# In article PMC2557009, “YB-1 promotes microtubule assembly in vitro through interaction with tubulin and microtubules” (BMC Biochemistry, 2008):
# B1: YB-1 (natural protein)
# chain: not shown
# notes: source: E. coli BL21(DE3), pET 3-1-YB-1 construct, purified (heparin-Sepharose, Sephacryl S-200)
# Biological target: the molecule itself
# Experiment: cross-linking; zero length cross-linker EDC (5 mM) / sulfo-NHS (12 mM); 1 μM tubulin and 0.3, 0.5, 0.8 or 1.2 μM YB-1, or each alone; 50 mM MES-KOH pH 6.8, 1 mM MgCl2, 1 mM EGTA, 0.5 mM GTP, 1 h at 30°C; SDS-PAGE, Coomassie and Western blot
protein,measurement,value
B1,stoichiometry N,2
